Source: US20230242902A1, “A HIGHLY ERROR-PRONE […] R[…] FOR TARGETED CONTINUOUS EVOLUTION IN VIVO” (The Regents of the University of California, priority 2017, published 2023)
Where a chain is given by its changes, count along the chain named. Names and notes keep the numbering of the source.

B1: K612Q: TP-DNAP1 variant (protein)
chain: MDYKDKALNDLRNVYADFDSLPLDFRQILIKDRATLLQKEDVEKKILERQEDAKKYAEYLKQSEIPERISLPNIKRHKGVSISFEETSEDMVLEPRPFIFDGLNIRCFRRETIFSLKNKILNMVKESSSFKNVSRQSVSFMYFKIFNKGKVIASTKSVNIYEDKIDERLEDLCNNFDDVLKKIIDVTYGYESLFVSETYSYVIFYAKSIYFPQPRCVNNWGNNIPNILTFDSFKLFTANKNNVSCIKQCSRFLWQKDFNTLEEMIEYKNGNICIVTPQLHINDVRDIKSFNDIRLYSESPIKTFSVIDNTITYLFYFKEHLGVIFNITKSRHDRRVTKFSPLSKFSDVKNITVCFDIESYFDPEKESNQVNIPFICCASIIYNKVIGNIVDFEGRDCVAQMIEYVVDICGELNISSVELIAHNGGGYDFHYILSSMYNPAAIKNILIRNNSFISFNFAHDGVKFSVKDSYSFLLCSLANASKAFLNEETFKKTDFPHHDLKTADDLYKVYKEWSSVNTEINHVVEKEKLLITSEHIVNFTKNDKSKTLIEWSKDYCRNDVLVLSKVWLEFKNAVEDIFNCELVDQTMTLAGLSYKLFQANMPFDVELRHPNQEDYFNMREALIGGRCISVNGIYKDVLCLDVKSLYPASMAFYDQPYGSFKRVSSRPKDELGIYYVRVTPNRNNKSNFFPIRSHNKITYNNFEESTYIAWYTNVDIDIGLSEGHNIEYIPFDSYGNIGYSWSKKGKIFEKYIKDVLYKLKIKYEKQNNKVKRNVIKIIMNSLWGKFAQKWVNFEYFIKSEDDIDFESEEAYKIWDTDFMLIKKIKESTYSSKPIQNGVFTLSWARYHMKSIWDAGAKEGAECIYSDTDSIFVHKEHFKKNAKFMLNGLKVPIIGSEVGQLELECEFDKLLCAGKKQYMGFYTYFQDGKPCIKEKKRFKGIPSNYIIPELYAHLLSGADKEAKIQFLKFRREWGSVKGYIENKTVKAT
B2: R682D: TP-DNAP1 variant (protein)
chain: B1 chain with Q612K, R682D
B3: R677Q: TP-DNAP1 variant (protein)
chain: B1 chain with Q612K, R677Q
B4: K612S: TP-DNAP1 variant (protein)
chain: B1 chain with Q612S
B5: D669G, T698M: TP-DNAP1 variant (protein)
chain: B1 chain with Q612K, D669G, T698M
B6: I673V, E703D: TP-DNAP1 variant (protein)
chain: B1 chain with Q612K, I673V, E703D
B7: E613D: TP-DNAP1 variant (protein)
chain: B1 chain with Q612K, E613D
B8: T679Q: TP-DNAP1 variant (protein)
chain: B1 chain with Q612K, T679Q
B9: R677L: TP-DNAP1 variant (protein)
chain: B1 chain with Q612K, R677L
B10: R662A: TP-DNAP1 variant (protein)
chain: B1 chain with Q612K, R662A
B11: R677S: TP-DNAP1 variant (protein)
chain: B1 chain with Q612K, R677S
B12: L295Q: TP-DNAP1 variant (protein)
chain: B1 chain with L295Q, Q612K
B13: T679R: TP-DNAP1 variant (protein)
chain: B1 chain with Q612K, T679R
B14: N681Q, R692I: TP-DNAP1 variant (protein)
chain: B1 chain with Q612K, N681Q, R692I
B15: E620R: TP-DNAP1 variant (protein)
chain: B1 chain with Q612K, E620R
B16: K612V: TP-DNAP1 variant (protein)
chain: B1 chain with Q612V
B17: E670M, S693G: TP-DNAP1 variant (protein)
chain: B1 chain with Q612K, E670M, S693G
B18: N683H: TP-DNAP1 variant (protein)
chain: B1 chain with Q612K, N683H
B19: N683A: TP-DNAP1 variant (protein)
chain: B1 chain with Q612K, N683A
B20: T679A: TP-DNAP1 variant (protein)
chain: B1 chain with Q612K, T679A
B21: N291W: TP-DNAP1 variant (protein)
chain: B1 chain with N291W, Q612K
B22: N681F: TP-DNAP1 variant (protein)
chain: B1 chain with Q612K, N681F
B23: R677M: TP-DNAP1 variant (protein)
chain: B1 chain with Q612K, R677M
B24: Y675L: TP-DNAP1 variant (protein)
chain: B1 chain with Q612K, Y675L
B25: T679E: TP-DNAP1 variant (protein)
chain: B1 chain with Q612K, T679E
B26: N683T: TP-DNAP1 variant (protein)
chain: B1 chain with Q612K, N683T
B27: R662C: TP-DNAP1 variant (protein)
chain: B1 chain with Q612K, R662C
B28: Y296K: TP-DNAP1 variant (protein)
chain: B1 chain with Y296K, Q612K
B29: Y675H: TP-DNAP1 variant (protein)
chain: B1 chain with Q612K, Y675H
B30: R682P: TP-DNAP1 variant (protein)
chain: B1 chain with Q612K, R682P
B31: F616E: TP-DNAP1 variant (protein)
chain: B1 chain with Q612K, F616E

system: p1; experiment: p1 copy number by p1-encoded mKate2 fluorescence; assay type: cell-based, S. cerevisiae; settings: OR-Y24, measured in triplicate
Method: A calibration curve was established to correlate p1 copy number, determined via quantitative PCR (qPCR), with fluorescence of p1-encoded mKate2 (Table 1). Five TP-DNAP1 variants representing a wide range of copy numbers were transformed into ORY24 and passaged until w.t. p1 was displaced. The five OR-Y24 strains were grown to saturation, diluted 1:10,000 to mimic p1 fluctuation tests, and grown in triplicate 100 μL cultures and duplicate 40 mL cultures. 100 μL saturated cultures were subject to fluorescence measurement of mKate2 (ex/em=561 nm/620 nm, bandwidth=15 nm) on a flow cytometer (Invitrogen Attune NxT). Whole-cell DNA extracts were prepared from 40 mL cultures and used as templates for qPCR measurement of p1-encoded leu2 (Q180*), as described previously (Ravikumar et al., 2014). p1-encoded LEU2 was PCR amplified with qPCR-Leu2F and qPCR Leu2R; and genomic LEU3 was PCR amplified with qPCR-Leu3F and qPCR-Leu3R using SyBR Green (Fisher Scientific) master mix.
To assay p1 copy number for large-scale p1 fluctuation tests, additional replicates of OR-Y24 strains were grown from the 1:10,000 dilution in triplicate and saturated cultures were subject to fluorescence measurement via flow cytometry. Fluorescence measurements were converted to copy number with the linear calibration curve.
To assay relative p1 copy number for small-scale p1 fluctuation tests, an additional 200 μL culture of OR-Y24 strains were grown from the 1:10,000 dilution. 200 μL saturated cultures were subject to an OD600 measurement and fluorescence measurement of mKate2 (ex/em=588 nm/633 nm), using a microplate reader (TECAN Infinite M200 PRO). A linear relationship was assumed between p1 copy number and OD600-normalized mKate2 fluorescence. Copy numbers were calculated from normalization to a w.t. TP-DNAP1 control.
For a few large-scale p1 fluctuation tests, p1 copy number was assayed by the method of small scale p1 fluctuation tests (i.e. microplate reader measurement). For these experiments, mutant TP-DNAP1 p1 copy numbers were calculated by normalization to a w.t. TP-DNAP1 control. The copy number of this control was assumed to be the average w.t. TP-DNAP1 copy number from all large-scale p1 fluctuation tests that used flow cytometry measurements.
TP-DNAP1 plasmids were isolated from these strains and subject to Sanger sequencing. 210 unique variants were identified and the corresponding plasmids were re-transformed into OR-Y24. Transformed strains were passaged in SC-UH until w.t. p1 was displaced, and subject to p1 copy number measurement in triplicate. Four high copy variants were directly subject to qPCR measurements for validation. To test the suppressor activity of the G410H mutation, which yields increased p1 copy number, this amino acid change was added to several low-activity TP-DNAP1 variants. p1 copy number was similarly assayed for these strains.

| Molecule | Mean fold-increase over w.t. (p1 copy number) [fold] |
| --- | --- |
| B1 | 2.04 |
| B2 | 1.74 |
| B3 | 1.84 |
| B4 | 1.75 |
| B5 | 1.65 |
| B6 | 1.88 |
| B7 | 1.82 |
| B8 | 1.71 |
| B9 | 1.68 |
| B10 | 1.75 |
| B11 | 1.87 |
| B12 | 2.48 |
| B13 | 1.73 |
| B14 | 1.74 |
| B15 | 2.29 |
| B16 | 1.85 |

| Molecule | Mean fold-increase over w.t. (p1 copy number) [fold] |
| --- | --- |
| B17 | 1.55 |
| B18 | 1.68 |
| B19 | 1.93 |
| B20 | 1.82 |
| B21 | 2.26 |
| B22 | 1.75 |
| B23 | 1.97 |
| B24 | 1.96 |
| B25 | 1.7 |
| B26 | 1.57 |
| B27 | 1.7 |
| B28 | 2.28 |
| B29 | 2.14 |
| B30 | 1.75 |
| B31 | 2.2 |
